# Laboratory results taken from US6335019B1, “Methods for treating sensitivity to protein allergen using peptides which include a T cell epitope recognized by a T cell receptor specific for the protein allergen” (Immulogic Pharmaceutical Corp., priority 1989, dated 2002).
# B1: Amb a IA: full-length recombinant Amb a IA, amino acid 10-398, E. coli expressed, used as crude bacterial lysate (protein)
# chain: LYFTLALVTLLQPVRSAEDLQEILPVNETRRLTTSGAYNIIDGCWRGKADWAENRKALADCAQGFGKGTVGGKDGDIYTVTSELDDDVANPKEGTLRFGAAQNRPLWIIFERDMVIRLDKEMVVNSDKTIDGRGAKVEIINAGFTLNGVKNVIIHNINMHDVKVNPGGLIKSNDGPAAPRAGSDGDAISISGSSQIWIDHCSLSKSVDGLVDAKLGTTRLTVSNSLFTQHQFVLLFGAGDENIEDRGMLATVAFNTFTDNVDQRMPRCRHGFFQVVNNNYDKWGSYAIGGSASPTILSQGNRFCAPDERSKKNVLGRHGEAAAESMKWNWRTNKDVLENGAIFVASGVDPVLTPEQSAGMIPAEPGESALSLTSSAGVLSCQPGAPC
# B2: Amb a IC: E. coli expressed recombinant Amb a IC, used as crude bacterial lysate (protein)
# chain: LYFTLALVALLQPVRSAEGVGEILPSVNETRSLQACEALNIIDKCWRGKADWENNRQALADCAQGFAKGTYGGKWGDVYTVTSNLDDDVANPKEGTLRFAAAQNRPLWIIFKNDMVINLNQELVVNSDKTIDGRGVKVEIINGGLTLMNVKNIIIHNINIHDVKVLPGGMIKSNDGPPILRQASDGDTINVAGSSQIWIDHCSLSKSFDGLVDVTLGSTHVTISNCKFTQQSKAILLGADDTHVQDKGMLATVAFNMFTDNVDQRMPRCRFGFFQVVNNNYDRWGTYAIGGSSAPTILCQGNRFLAPDDQIKKNVLARTGTGAAESMAWNWRSDKDLLENGAIFVTSGSDPVLTPVQSAGMIPAEPGEAAIKLTSSAGVFSCRPGAPC
# B3: affinity purified Amb a I: protein affinity purified from pollen extract with monoclonal antibody 4B5/B7 (protein)
# chain: AEDLQEILPVNETRRLTTSGAYNIIDGCWRGKADWAENRKALADCAQGFGKGTVGGKDGDIYTVTSELDDDVANPKEGTLRFGAAQNRPLWIIFERDMVIRLDKEMVVNSDKTIDGRGAKVEIINAGFTLNGVKNVIIHNINMHDVKVNPGGLIKSNDGPAAPRAGSDGDAISISGSSQIWIDHCSLSKSVDGLVDAKLGTTRLTVSNSLFTQHQFVLLFGAGDENIEDRGMLATVAFNTFTDNVDQRMPRCRHGFFQVVNNNYDKWGSYAIGGSASPTILSQGNRFCAPDERSKKNVLGRHGEAAAESMKWNWRTNKDVLENGAIFVASGVDPVLTPEQSAGMIPAEPGESALSLTSSAGVLSCQPGAPC
# B4: Amb a IB: E. coli expressed recombinant Amb a IB, used as crude bacterial lysate (protein)
# chain: LYFTLALVTLLQPVRSAEDVEEFLPSANETRRSLKACEAHNIIDKCWRCKADWANNRQALADCAQGFAKGTYGGKHGDVYTVTSDKDDDVANPKEGTLRFAAAQNRPLWIIFKRNMVIHLNQELVVNSDKTIDGRGVKVNIVNAGLTLMNVKNIIIHNINIHDIKVCPGGMIKSNDGPPILRQQSDGDAINVAGSSQIWIDHCSLSKASDGLLDITLGSSHVTVSNCKFTQHQFVLLLGADDTHYQDKGMLATVAFNMFTDHVDQRMPRCRFGFFQVVNNNYDRWGTYAIGGSSAPTILSQGNRFFAPDDIIKKNVLARTGTGNAESMSWNWRTDRDLLENGAIFLPSGSDPVLTPEQKAGMIPAEPGEAVLRLTSSAGVLSCHQGAPC
# Assays:
# [1] = system: human IgE (ragweed allergic patient sera); assay: SDS-PAGE Western blot (and ELISA) of ragweed allergic patient IgE binding to pollen, affinity purified and recombinant Amb a I / Amb a II; set-up: key to IgE binding, summarized Western blot data: −: no signal over background; +−: barely discernable over background; +: clearly positive; ++: strongly positive; +++: highly positive; conditions: for Extent of specific IgE binding relative to Amb a IB or Amb a II (in words): patient #295, FIG. 20; for Human IgE binding (in words): Western blot (FIG. 17) and/or ELISA, ragweed allergic patient IgE
# Protocol: As represented in FIG. 1A, a selected monoclonal antibody (designated 4B5/B7) which recognizes an Amb a I preparation unsubjected to denaturing conditions was used to affinity purify from pollen extract a single protein, which is referred to as affinity purified Amb a I. This was carried out, using known techniques, by producing the desired monoclonal antibody, isolating it in large quantities from ascites and immobilizing it on Sepharose (Pharmacia). Aqueous pollen extract was passed over the monoclonal antibody-containing column and a protein species was eluted.
# Furthermore, full-length and truncated cDNAs encoding several members of the Amb a I multigene family, as well as Amb a II, were cloned in-frame into the expression vector pTrc99 (Amann et al. Gene, 69:301-315, (1988)) and transformed into the JM109 host. Expression of recombinant Amb a I and Amb a II protein was induced by 1 mM isopropyl-β-D-thiogalactopyranoside, cells were harvested, lysozyme treated, sonicated and insoluble inclusion bodies recovered by a low speed centrifugation. Recombinant Amb a I and Amb a II protein present in the recovered pellet was solubilized in buffer containing 8M urea, 50 mM Tris HC1 pH8.0, 50 mM NaCl, 1 mM EDTA, 1 mM dithiothreitol, 1 mM phenylmethylsulfonyl fluoride. After solubilization, the crude urea lysate was dialyzed at 4° C. against PBS. […] This antigenic cross-reactivity is consistent with the observed sequence homology of the cDNAs (see FIG. 16).
# Comparison of human IgE binding to recombinant Amb a I and Amb a II proteins with anti-peptide and monoclonal anti-Amb a I antibodies have provided data consistent with the conclusion that the N-terminal portion (historically referred to as the β-region) of Amb a IA includes the major IgE eptiope(s).
# Affinity purified Amb a I was electrophoresed, Western transferred (Towbin et al., Proc. Natl. Acad. Sci. USA, 76:4350 (1979)) and probed with a variety of antibodies, including IgE from an allergic patient (FIG. 17). In pollen extract Amb a I is not only present as an intact 38-KD species, but also characterized by its component 26KD alpha chains and 12-KD beta chains which are formed by enzymatic cleavage. The intact 38-KD species and the alpha chain are clearly detected using rabbit anti-Amb a I, polyclonal affinity purified anti-RAE 16 and monoclonal anti-Amb a I JBIE3-4 (FIG. 17); RAE 16 peptide has the sequence RTDKDLLENGAIC derived from amino-acids […] of Amb a IB, FIG. 16). Affinity purified Amb a I (partial sequence presented in Table 1) as well as chromatographically purified Amb a II (partial sequence presented in Table 2) are bound on Western blots by these antibodies as well as by patient IgE (FIG. 17). The goat anti-Amb a I polyclonal antibody also binds multiple Amb a I and Amb a II species on a two dimensional Western blot of pollen extract (FIG. 18). The Western blot was performed as outlined below. […]
# [2] = system: rabbit antisera directed against an Amb a II sequence (amino acid 326-338; RAE 50. K); assay: Western blot of recombinant proteins with monospecific anti-peptide antisera against RAE 50. K; type: binding; conditions: Western blots, data not shown
# Description: Proteins or peptides encoded by the cDNA of the present invention can be used, for example, as “purified” allergens. Such purified allergens are useful in the standardization of allergen extracts which are key reagents for the diagnosis and treatment of ragweed allergy. Furthermore, by using peptides based on the sequences listed in FIGS. 2 through 16, anti-peptide antisera or monoclonal antibodies can be made using standard methods. Such reagents can be specifically directed against individual isoforms of Amb a I or Amb a II (i.e., directed against divergent regions/epitopes of the molecule) or can be specific for all forms Amb a I or Amb a II (i.e, directed against common sequences/epitopes). These sera or monoclonal antibodies, directed against Amb a I or Amb a II, can be used to standardize allergen extracts. One such monospecific anti-peptide antisera has already been successfully produced.
Molecule,"IgE binding, summarized Western blot data ([1]; patient 151)","IgE binding, summarized Western blot data ([1]; patient 222)","IgE binding, summarized Western blot data ([1]; patient 291)","IgE binding, summarized Western blot data ([1]; patient 295)","IgE binding, summarized Western blot data ([1]; patient 296)",Extent of specific IgE binding relative to Amb a IB or Amb a II (in words) [1],Binding by rabbit anti-RAE 50. K antisera (in words) [2],Human IgE binding (in words) [1],Human IgE binding (in words) ([1]; listed as 4B5/B7 affinity purified Amb a I),Human IgE binding (in words) ([1]; listed as Affinity purified Amb a I)
B1,+,+−,+++,+++,++,far greater extent,not,,,
B2,+,+−,+++,+++,++,far greater extent,not,,,
B3,,,,,,,,bind human IgE,readily detectable IgE reactivity,bound
B4,−,+−,−,+,,,not,,,
